Measured values taken from the supplement of paper PMC10126150.
± gives the standard deviation of the averaged measurements.

Test system: ATP
Assay: switch fluorescence ratio, 500 uM ATP over buffer (Cy3 cluster intensity, sum of 5 cycles each) (fold (ratio)); higher = stronger signal-on switching upon ATP binding; sequences stand for … in TCGTCGGCAGCGTCAGATGTGTATAAGAGACAGTTTTTTTTTTTTTTTTTTTTTTTTT…TC
Conditions: aptamer strand: ATP DNA aptamer (quencher-CACCTGGGGGAGTATTGCGGAGGAAGG + anchor), 100 nM annealed; ATP concentration: 500 uM
Summary of the method: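 The fluorescence ratio divides summed target-cycle Cy3 intensity by summed buffer-cycle Cy3 intensity for each cluster and is averaged per switch-domain sequence. Cy3-labelled switching-strand clusters on a modified Illumina MiSeq flow-cell were annealed to 100 nM quencher-labelled ATP aptamer, then imaged in selection buffer and again after 15 min with 500 uM ATP at 22 °C. Five such cycles were run, with NaOH stripping and re-annealing between them, and clusters outside 100-1000 RFU were excluded.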
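Note: ATP exposure 15 min at 22 °C before imaging.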

Row | Sequence | switch fluorescence ratio
1 | ATATCCAGGA | 1.02 ± 0.018
2 | ATATCCGCTG | 1.52 ± 0.071
3 | ATATCGGCAT | 1.01 ± 0.035
4 | ATATCGGTAG | 0.999 ± 0.014
5 | ATATCTATTT | 0.997 ± 0.019
6 | ATATCTTTTG | 0.9904 ± 0.0088
7 | ATATGAAGAG | 0.99884 ± 9.2e-05
8 | ATATGAAGGG | 1 ± 0.032
9 | ATATGAATA | 0.9987 ± 0.0037
10 | ATATGCAGGA | 0.965 ± 0.03
11 | ATATGCCGAT | 0.996 ± 0.013
12 | ATATGCGGCG | 1.02 ± 0.073
13 | ATATGCGTAT | 1.01 ± 0.02
14 | ATATGCTCAC | 1.05 ± 0.03
15 | ATATGGAGAT | 0.98 ± 0.017
16 | ATATGGATAA | 1.01 ± 0.012
17 | ATATGGGCTG | 1.05 ± 0.1
18 | ATATGGTAGT | 1.03 ± 0.032
19 | ATATGGTGCT | 1.004 ± 0.0074
20 | ATATGGTGGG | 1.01 ± 0.025
21 | ATATGTAGGT | 0.998 ± 0.049
22 | ATATGTATGG | 0.968 ± 0.011
23 | ATATGTGACT | 0.977 ± 0.014
24 | ATATGTGAGG | 0.985 ± 0.0073
25 | ATATGTGCCA | 0.98 ± 0.02
26 | ATATGTGGCG | 0.932 ± 0.011

Row | Sequence | switch fluorescence ratio
27 | ATATGTGGGT | 0.989 ± 0.038
28 | ATATGTTGAA | 1.02 ± 0.027
29 | ATATGTTGAG | 1 ± 0.017
30 | ATATGTTTTT | 0.996 ± 0.018
31 | ATATTAGTTT | 1 ± 0.011
32 | ATATTATGAT | 0.985 ± 0.03
33 | ATATTATGGG | 0.9979 ± 0.0095
34 | ATATTCGGAA | 0.99369 ± 0.00071
35 | ATATTCGTTG | 1.007 ± 0.0027
36 | ATATTGAGGC | 1.01 ± 0.038
37 | ATATTGCTGG | 0.9724 ± 0.0085
38 | ATATTGGTGG | 0.991 ± 0.042
39 | ATATTTAATC | 0.999 ± 0.0079
40 | ATATTTAGCG | 0.968 ± 0.016
41 | ATATTTGATT | 0.977 ± 0.021
42 | ATATTTGGAG | 0.9981 ± 0.003
43 | ATATTTGGCC | 0.974 ± 0.021
44 | ATATTTTAAC | 1 ± 0.012
45 | ATATTTTGTG | 0.982 ± 0.026
46 | ATATTTTGTT | 1.03 ± 0.066
47 | ATATTTTTAT | 0.987 ± 0.0082
48 | ATATTTTTGG | 0.993 ± 0.011
49 | ATCAAAAACG | 1.01 ± 0.029
50 | ATCAAAAGAT | 0.9811 ± 0.0085
51 | ATCAAAGGGG | 1 ± 0.0072
52 | ATCAAATCGG | 1.01 ± 0.025

Row | Sequence | switch fluorescence ratio
53 | ATCAAGGGGA | 0.972 ± 0.028
54 | ATCAATGGCA | 0.975 ± 0.035
55 | ATCAATGGGT | 0.979 ± 0.025
56 | ATCAATGTTC | 1.07 ± 0.094
57 | ATCAATTCGA | 1.021 ± 0.0038
58 | ATCAATTGAT | 1.01 ± 0.052
59 | ATCACATGAC | 1.19 ± 0.016
60 | ATCACATTCG | 1.02 ± 0.043
61 | ATCACGCGTA | 1.02 ± 0.037
62 | ATCACGGGCT | 0.967 ± 0.027
63 | ATCACTAGGA | 1.04 ± 0.037
64 | ATCACTCACT | 1.18 ± 0.06
65 | ATCACTCGTA | 1.03 ± 0.043
66 | ATCAGACTTG | 1.023 ± 0.0012
67 | ATCAGAGCTG | 0.964 ± 0.032
68 | ATCAGATGAA | 0.999 ± 0.023
69 | ATCAGATTGG | 0.989 ± 0.0099
70 | ATCAGGATGC | 1.04 ± 0.063
71 | ATCAGGCATT | 1.03 ± 0.011
72 | ATCAGGGACA | 1.18 ± 0.017
73 | ATCAGGGTAC | 1.05 ± 0.04
74 | ATCATAAGGT | 1.02 ± 0.02
75 | ATCATCCGTT | 1.04 ± 0.025
76 | ATCATGAGGT | 0.97829 ± 0.00072
77 | ATCATGCTTC | 0.994 ± 0.025
78 | ATCATGTGTT | 0.994 ± 0.022

Row | Sequence | switch fluorescence ratio
79 | ATCATTCAAA | 1.008 ± 0.0073
80 | ATCATTCCTC | 1.573 ± 0.011
81 | ATCATTGGGC | 0.988 ± 0.025
82 | ATCATTGGTA | 1 ± 0.023
83 | ATCATTGTTA | 1 ± 0.053
84 | ATCCAAGATT | 1 ± 0.019
85 | ATCCAGTGTC | 1.057 ± 0.0061
86 | ATCCAGTGTG | 1.89 ± 0.2
87 | ATCCCCGGAG | 1.33 ± 0.12
88 | ATCCGAGCAT | 4.654 ± 0.039
89 | ATCCGGTTCG | 0.9946 ± 0.0095
90 | ATCCTAAGGC | 1 ± 0.029
91 | ATCCTGGGGT | 1.01 ± 0.029
92 | ATCCTTTGTG | 1.02 ± 0.053
93 | ATCGAAATGG | 1 ± 0.024
94 | ATCGAACCTT | 1.55 ± 0.45
95 | ATCGACTTTT | 1.015 ± 0.003
96 | ATCGAGAACG | 0.993 ± 0.014
97 | ATCGAGTGTG | 1.01 ± 0.027
98 | ATCGATGGGT | 1.03 ± 0.047
99 | ATCGCCTTGT | 0.9943 ± 0.0024
100 | ATCGCGGCCG | 1.02 ± 0.04
101 | ATCGCGTACT | 1.19 ± 0.04
102 | ATCGCTTAAG | 0.991 ± 0.035
103 | ATCGCTTAAT | 1.03 ± 0.049
104 | ATCGCTTGAG | 0.9725 ± 0.0034

Row | Sequence | switch fluorescence ratio
105 | ATCGGAAAAA | 1.02 ± 0.026
106 | ATCGGAGGAA | 1.17 ± 0.061
107 | ATCGGATTGT | 1.012 ± 0.007
108 | ATCGGATTTC | 1.02 ± 0.047
109 | ATCGGCATTT | 1.027 ± 0.0084
110 | ATCGGCGATT | 1.04 ± 0.024
111 | ATCGGCGGGA | 0.986 ± 0.01
112 | ATCGGGGATT | 1.01 ± 0.014
113 | ATCGGGGGCC | 0.973 ± 0.042
114 | ATCGGGGGTG | 0.982 ± 0.036
115 | ATCGGGGTAT | 0.992 ± 0.042
116 | ATCGGGGTCG | 1.05 ± 0.038
117 | ATCGGGTGGG | 1.001 ± 0.0075
118 | ATCGGGTGTG | 0.9871 ± 0.0015
119 | ATCGGGTTGG | 0.965 ± 0.018
120 | ATCGGTATAT | 1.02 ± 0.039
121 | ATCGTCCCGA | 1.05 ± 0.039
122 | ATCGTGCACA | 0.973 ± 0.036
123 | ATCGTGGATT | 0.969 ± 0.019
124 | ATCGTGGGTT | 0.97919 ± 0.00077
125 | ATCGTGTAGG | 0.99 ± 0.11
126 | ATCGTGTATC | 1.06 ± 0.0081
127 | ATCGTTATTA | 1.02 ± 0.018
128 | ATCGTTCCGC | 1.22 ± 0.03
129 | ATCGTTGGG | 1.01 ± 0.055
130 | ATCGTTTCGT | 1.02 ± 0.019

Row | Sequence | switch fluorescence ratio
131 | ATCGTTTGTT | 1.04 ± 0.062
132 | ATCGTTTTGA | 0.989 ± 0.013
133 | ATCGTTTTTA | 1.001 ± 0.004
134 | ATCTAAAAGG | 1.01 ± 0.059
135 | ATCTAAACGT | 1.0574 ± 0.00082
136 | ATCTAATTAG | 0.963 ± 0.045
137 | ATCTACCATG | 1.03 ± 0.04
138 | ATCTACGAAA | 1.31 ± 0.03
139 | ATCTAGAGGA | 0.985 ± 0.023
140 | ATCTAGGGGA | 0.9995 ± 0.0066
141 | ATCTAGGGGG | 1.05 ± 0.017
142 | ATCTAGGGTG | 1.08 ± 0.012
143 | ATCTAGTAGT | 1.01 ± 0.013
144 | ATCTATAGTG | 0.9651 ± 0.0035
145 | ATCTATGTGG | 0.982 ± 0.035
146 | ATCTCACAGA | 0.989 ± 0.025
147 | ATCTGAACGT | 1.02 ± 0.074
148 | ATCTGAAGGT | 0.975 ± 0.031
149 | ATCTGATAGC | 0.955 ± 0.047
150 | ATCTGATGTC | 0.978 ± 0.018
151 | ATCTGCCTTG | 1 ± 0.019
152 | ATCTGGGAGT | 1.014 ± 0.00032
153 | ATCTGGGGGG | 1 ± 0.064
